Experimental data from patent publication US6670452B2, “Non-naturally occurring lipoprotein particle” (University of Strathclyde, priority 1996, dated 2003).
“Also recorded” adds a separate entry of the source. No end group written: not given here. lipid anchor = not defined here

Experiments:
B16 cells = experiment: 14C-nLDL cell binding assay at 4° C.; details: peptide 0.03 mol/mol cholesterol
Method: The required quantity of 14C-cholesteryl oleate (0.5 μCi-/mmol CO, supplied dissolved in toluene) was mixed if required with ten times its volume of DMSO prior to addition to stirred nLDL heated at 55° C. in a water bath. After incubation for 5 hours the mixture was passed down a Sephadex G-25M gel exclusion chromatography column (bed volume 10 ml) eluted with PBS. Fractions (1 ml) were collected their absorbance (300 nm) and 14C-cholesteryl oleate activity measured. Labelled preparations were filter sterilised (0.2 μm) and stored at 4° C. under N2 before use.
B16 cells were maintained in RPM: 1640 medium supplemented with 10% v/v FCS incubated at 37° C. in a 5% CO2 in air atmosphere. Confluent cultures were trypsinised, harvested and re-seeded at a dilution of 1 in 20 in fresh medium.
B16 cells were harvested in the log growth phase, washed by centrifugation and re-seeded into 24 well plates 1×10^5 cells/ml in media containing 10 v/v DFCS. After overnight incubation the cells were cooled to 4° C. for 1 hour, the media aspirated and replaced with ice cold media containing 10% v/v DFCS, supplemented with 14C-nLDL at a cholesterol concentration of 0.08 mmol/l. Four replicate wells were used for each concentration. Cells were then incubated at 4° C. for 4 hours with occasional rocking, the media aspirated and cells washed three times with ice cold PBS/BSA buffer (2 mg/ml BSA in PBS) followed by two ten minute incubations with ice cold PBS/BSA. Three final washes with ice cold PBS were then conducted. The 14C-cholesteryl oleate was extracted with hexane/isocropanol for 30 minutes at room temperature, aspirated and then mixed with 3 ml of scintillation fluid prior to counting. Cellular protein left in the well after extraction was assayed using Peterson's modification of the Lowry method^14. Sodium deoxycholate (1.5 mg/ml) was added to solubilise the protein, which was then precipitated by the addition of trichloroacetic acid (72% w/v), pelleted by centrifugation (5,000 rpm 10 minutes), the supernatant discarded and the pellet solubilised in Lowry reagent at room temperature for 20 minutes. Folin Ciocalteu's reagent was added, the solutions mixed and the colour allowed to develop for 30 minutes prior to absorbance measurements at 690 nm using a plate reader. A calibration curve was clotted from BSA standards ranging from 20 to 200 μg/ml.

U937 cells = experiment: U937 cell growth (proliferation) assay; format: cell-based; details: DFCS 5% v/v, peptide 0.03 mol/mol cholesterol oleate, 72 hours, range of cholesterol concentrations
Method: U937 stock cultures were grown at 37° C. in RPMI 1640 media supplemented glutamine (10 mM), gentamicin (50 μg/ml), fungizone (0.5 μg/ml) and 10% (v/v) foetal calf serum (FCS). Cells were maintained in a humidified 5% CO2, atmosphere between 1-8×10^5 cells/ml and sub-cultured twice weekly.
All growth assays were conducted over 72 hours in 24 well plates unless otherwise indicated. One day before each growth experiment, cells were centrifuged at 1500 rpm for 5 minutes and resuspended in RPM: medium containing 5% (v/v) delipidated foetal calf serum (DFCS) to initiate cholesterol starvation and up regulate LDL receptors. Cells were collected by centrifugation and seeded at 1×10^5/well. Appropriate amounts of cholesterol (either LDL, microemulsion or nLDL) were then added after filtration (0.2 μm) and the well volume made up to 1 ml with RPMI containing 5% (v/v) DFCS. After 72 hours an aliquot of each well was diluted with PBS and the number of cells present determined in triplicate by Coulter Counter. Different concentrations were repeated four or eight times depending on the experiment. Three wells per experiment were checked at random before commencement of incubation to ensure a uniform cell density was achieved. […] In all cases, the mean starting cell densities of control resells were between 0.95 and 1.05×10^5 cells/ml.

[1] = Zeta potential measurement; format: physicochemical; details: for Zeta potential increase at low peptide concentrations: below 0.2 moles/mole CO, diameter unchanged; for Changes of mean number diameter and zeta potential in altered surface lipid formulations (FIG. 10): microemulsion formulations with PC, SM, UC, TO, CO; for Zeta potential reached with increasing peptide concentration: plateau / constant value, FIG. 8, pH 8.0 Tris, 25° C.
Method: Samples were diluted 1 in 5 with 0.01M Tris buffer (pH 8.0) and zeta potential measured at 25° C. using the Zetasizer® 4 (Malvern Instruments). The applied voltage was 150V in each case and duty cycling was used to limit the cell current to 20 mA. All results quoted are the mean and standard deviation of at least 10 measurements.

[2] = Particle size by photon correlation spectroscopy; format: physicochemical; details: for Peptide concentration producing increases in diameter: FIG. 8; for Effect of increasing peptide concentration on particle diameter: FIG. 8, Number Mean Diameter
Method: Particle size analysis was carried out using photon correlation spectroscopy (Zetasizer® Model 4, Malvern Instruments, Malvern, (UK). Before analysis samples were diluted with Tris-HCl buffer (0.01M) and filtered (0.2 μm). Sizing measurements were carried out at a fixed angle of 90° to the incident beam. The correlator was operated in parallel mode to allow for more accurate size distribution measurements. The cumulants method of analysis was used to calculate the mean sample size weighted according to the intensity of scattered light (z-average diameter). Since this diameter is weighted strongly on favour of large particles, Rayleigh theory was used to convert intensity distributions into number distributions [^12]. The viscosity and refractive index values of pure water were used in the size calculations. All results quoted are the mean and standard deviation of at least 10 measurements.

Substance | Total binding curve to B16 cells (FIG. 11) (B16 cells) | Growth of U937 cells induced by different nLDL preparations (FIG. 4) (U937 cells) | Zeta potential increase at low peptide concentrations [1] | Effect of peptide on zeta potential ([1]; increasing peptide concentrations, FIG. 8) | Changes of mean number diameter and zeta potential in altered surface lipid formulations (FIG. 10) [1] | Peptide concentration producing increases in diameter [2] | Effect of increasing peptide concentration on particle diameter [2] | Difference in zeta potential between the lipid formulations ([1]; FIG. 10) | Zeta potential reached with increasing peptide concentration [1]
Peptide D: twenty two amino acid peptide with the cholesterol anchor removed (FIG. 7) (YKLEGTTRLTRKRGLKLATALS; also: lipid anchor, cholesterol anchor removed) | saturable increase in total binding | greatest increase in proliferation | – | – | – | – | – | – | –
Peptide C: twenty two amino acid peptide containing the Apo B binding region, with both lipid anchors (FIG. 7) ({lipid anchor}-YKLQGTTRLTRKRGLKLATALS; not fully specified (C-terminus); reading uncertain; also: C-terminal lipid anchor) | saturable increase in total binding | greatest increase in proliferation | double the effect | reversal of zeta potential | large alterations in both parameters | 0.2 moles /mole CO | diameter almost doubles | – | –
Peptide E: random, non Apo B binding region sequence based on the amino acids of the previous peptides (FIG. 7) (TGKRYRLKTLRTLKKTSLLEAA; ()..() Synthesised peptide analogue of the Apo B 100 binding site) | saturable increase in total binding | least effective | – | – | – | – | – | – | –
Peptide A: eleven amino acids Apo B binding site peptide with both C and N terminal lipid anchors (FIG. 7) ({lipid anchor}-LRLTRKRGLKL; not fully specified (C-terminus); reading uncertain; also: C-terminal lipid anchor) | – | least effective | roughly equal | – | reversal of zeta potential with little change in diameter | 0.5 moles /mole CO | Below 0.5 moles/mole Co Peptide A has no effect on size | significant difference in zeta potential between the lipid formulations | around +17 mV
Peptide B: eleven amino acid Apo B binding site peptide without the C-terminal cholesterol anchor (FIG. 7) ({lipid anchor}-GTTRLTRKRGLKL; not fully specified; reading uncertain) | saturable increase in total binding | greatest increase in proliferation | roughly equal | – | reversal of zeta potential with little change in diameter | – | size also remains constant; also recorded: no effect at any concentration | – | ~+15 mV
